From patent US11994512B2, “Single-cell genomic methods to generate ex vivo cell systems that recapitulate in vivo biology with improved fidelity” (Massachusetts Institute of Technology, priority 2018, dated 2024)

Test system: intracellular proteome of ENR+CD and ENR organoids
Assay: LC-MS/MS TMT proteomics of ENR+CD versus ENR organoids
Assay type: cell-based, C57BL/6 mice
Conditions: for Average logFC: ENR+CD versus ENR organoids, sample pairs in aggregate (n=4, 2 technical replicates from two biological donors); for M1-1 Log2 Median Normalized / M1-2 Log2 Median Normalized / M2-1 Log2 Median Normalized / M2-2 Log2 Median Normalized: protein abundance ratio ENR+CD versus ENR organoids, LC-MS/MS TMT proteomics; for M1-1 Log2 Median Normalized: sample pair M1-1; for M1-2 Log2 Median Normalized: sample pair M1-2; for M2-1 Log2 Median Normalized: sample pair M2-1; for M2-2 Log2 Median Normalized: sample pair M2-2; for change: up = enriched in ENR+CD, down = enriched in ENR, FDR<0.05 and log fold change cut-off

Molecule	Average logFC	M1-1 Log2 Median Normalized	M1-2 Log2 Median Normalized	M2-1 Log2 Median Normalized	M2-2 Log2 Median Normalized	change
Q8VCI0 (protein, UniProt Q8VCI0 1-550, looked up, full-length) MCHRSPGRSLRPPSPLLLLLPLLLQPPWAAGAASQSDPTGVHCATAYWSPESKKVEIKTVLDKNGDAYGYYNDSIKTTGWGILEIRAGYGSQVLSNEIIMFLAGYLEGYLTALHMYDHFTNLYPQLIKNPSIVKKVQDFMEKQEMWTRQNIKAQKDDPFWRHTGYVVTQLDGLYLGAQKRASEEKIKPMTMFQIQFLNAVGDLLDLIPSLSPTKSSSMMKFKIWEMGHCSALIKVLPGFENIYFAHSSWYTYAAMLRIYKHWDFNIKDKYTLSKRLSFSSYPGFLESLDDFYILSSGLILLQTTNSVYNKTLLKQVVPKTLLAWQRVRVANMMAEGGKEWAQIFSKHNSGTYNNQYMVLDLKKVTINRSLDKGTLYIVEQIPTYVEYSDQTNVLRKGYWASYNIPFHKTIYNWSGYPLLVHKLGLDYSYDLAPRAKIFRRDQGNVTDMASMKYIMRYNNYKEDPYSKGDPCSTICCREDLNGASPSPGGCYDTKVADIFLASQYKAYAISGPTVQDGLPPFNWNRFNETLHRGMPEVFDFNFVTMKPILS	−1.188	−1.187	−1.193	−1.4105	−0.754	down
Q8VCT4 (protein, UniProt Q8VCT4 1-565, looked up, full-length) MGLYPLIWLSLAACTAWGYPSSPPVVNTVKGKVLGKYVNLEGFTQPVAVFLGVPFAKPPLGSLRFAPPQPAEPWSFVKNTTSYPPMCSQDAVGGQVLSELFTNRKENIPLQFSEDCLYLNIYTPADLTKNSRLPVMVWIHGGGLVVGGASTYDGLALSAHENVVVVTIQYRLGIWGFFSTGDEHSRGNWGHLDQVAALRWVQDNIANFGGNPGSVTIFGESAGGFSVSVLVLSPLAKNLFHRAISESGVSLTAALITTDVKPIAGLVATLSGCKTTTSAVMVHCLRQKTEDELLETSLKLNLFKLDLLGNPKESYPFLPTVIDGVVLPKAPEEILAEKSFSTVPYIVGINKQEFGWIIPTLMGYPLAEGKLDQKTANSLLWKSYPTLKISENMIPVVAEKYLGGTDDLTKKKDLFQDLMADVVFGVPSVIVSRSHRDAGASTYMYEFEYRPSFVSAMRPKAVIGDHGDEIFSVFGSPFLKDGASEEETNLSKMVMKFWANFARNGNPNGGGLPHWPEYDQKEGYLKIGASTQAAQRLKDKEVSFWAELRAKESAQRPSHREHVEL	−1.924	−1.923	−1.965	−2.3285	−1.001	down
Q8VE33 (protein, UniProt Q8VE33 1-370, looked up, full-length) MATPNNLTPTNCSWWPISALESDAAKPVETPDAPEASSPAHWPKESLVLYHWTQSFSSQKRLQVRLVIAEKGLACEERDVSLPQSEHKEPWFMRLNLGEEVPVIIHRDNIISDYDQIIDYVERTFTGEHVVALMPEAGSPQHARVLQYRELLDALPMDAYTHGCILHPELTTDSMIPKYATAEIRRHLANATTDLMKLDHEEEPQLSEPYLSKQKKLMAKILEHDDVSYLKKILGELAMVLDQIEAELEKRKLENEGQTCELWLCGCAFTLADVLLGATLHRLKFLGLSKKYWEDGSRPNLQSFFERVQRRFAFRKVLGDIHTTLLSAVIPNAFRLVKRKPPSFFGASFLMGSLGGMGYFAYWYLKKKYI	1.453	2.102	0.932	1.1705	1.609	up
Q8VEE1 (protein, UniProt Q8VEE1 1-365, looked up, full-length) MAKVAKDLNPGVQKMSLGQQQSARGVACLRCKGMCSGFEPHSWRKICKSCKCSQEEHCLSSDLDDDRKIGRLLMDSKYATLTARVKGGDGIRIYKRNRMIMTNPIATGKDPTFDTITYEWAPPGVTQKLGLQYMELIPKERQPVTGTEGALYRRRQLMHQLPIYDQDPSRCRGLVENELKAMEEFVKHYKSEALGVGEVALPGQGGLPKEENKTQEKPEGTETTAPTTNGSLGDPSKEVEYVCELCKGAAPVDSPVVYADRAGYSKQWHPTCFQCIKCSEPLVDLIYFWKDGAPWCGRHYCESVRPRCSGCDEIIFSEDYQRVEDLAWHRKHFICEGCEQLLSGRAYIVTKGQLLCPTCSKSKRS	−1.258	−1.327	−1.525	−1.0345	−1.145	down
Q8VHC3 (protein, UniProt Q8VHC3 1-145, looked up, full-length) MSILLSPPSLLLLLAALVAPATSTTNYRPDWNRLRGLARGRVETCGGUQLNRLKEVKAFVTEDIQLYHNLVMKHLPGADPELVLLSRNYQELERIPLSQMTRDEINALVQELGFYRKSAPEAQVPPEYLWAPAKPPEEASEHDDL	1.481	1.688	1.48	1.1495	1.521	up
Q8VI93 (protein, UniProt Q8VI93 1-1138, looked up, full-length) MDLFHTPAGALDKLVAHNLHPAPEFTAAVRGALGSLNITLQQHRARGSQRPRVIRIAKGGAYARGTALRGGTDVELVIFLDCFQSFGDQKTCHSETLGAMRMLLESWGGHPGPGLTFEFSQSKASRILQFRLASADGEHWIDVSLVPAFDVLGQPRSGVKPTPNVYSSLLSSHCQAGEYSACFTEPRKNFVNTRPAKLKNLILLVKHWYHQVQTRAVRATLPPSYALELLTIFAWEQGCGKDSFSLAQGLRTVLALIQHSKYLCIFWTENYGFEDPAVGEFLRRQLKRPRPVILDPADPTWDVGNGTAWRWDVLAQEAESSFSQQCFKQASGVLVQPWEGPGLPRAGILDLGHPIYQGPNQALEDNKGHLAVQSKERSQKPSNSAPGFPEAATKIPAMPNPSANKTRKIRKKAAHPKTVQEAALDSISSHVRITQSTASSHMPPDRSSISTAGSRMSPDLSQIPSKDLDCFIQDHLRPSPQFQQQVKQAIDAILCCLREKSVYKVLRVSKGGSFGRGTDLRGSCDVELVIFYKTLGDFKGQKPHQAEILRDMQAQLRHWCQNPVPGLSLQFIEQKPNALQLQLASTDLSNRVDLSVLPAFDAVGPLKSGTKPQPQVYSSLLSSGCQAGEHAACFAELRRNFINTCPPKLKSLMLLVKHWYRQVVTRYKGGEAAGDAPPPAYALELLTIFAWEQGCGEQKFSLAEGLRTILRLIQQHQSLCIYWTVNYSVQDPAIRAHLLCQLRKARPLVLDPADPTWNVGQGDWKLLAQEAAALGSQVCLQSGDGTLVPPWDVTPALLHQTLAEDLDKFISEFLQPNRHFLTQVKRAVDTICSFLKENCFRNSTIKVLKVVKGGSSAKGTALQGRSDADLVVFLSCFRQFSEQGSHRAEIISEIQAHLEACQQMHSFDVKFEVSKRKNPRVLSFTLTSQTLLDQSVDFDVLPAFDALGQLRSGSRPDPRVYTDLIHSCSNAGEFSTCFTELQRDFITSRPTKLKSLIRLVKYWYQQCNKTIKGKGSLPPQHGLELLTVYAWEQGGQNPQFNMAEGFRTVLELIVQYRQLCVYWTINYSAEDKTIGDFLKMQLRKPRPVILDPADPTGNLGHNARWDLLAKEATVYASALCCVDRDGNPIKPWPVKAAV	1.461	1.378	0.979	1.6325	1.853	up
Q8WUR0 (protein, UniProt Q8WUR0 1-141, looked up, full-length) MPIMVDDIMRLLCSISQERKMKAAVKHSGKGAMVAGAMAFVGGLVGGPPGIAVGGTVGGLLGAWMTSGQFKPVPQILMELPPAEQRKLVNEAMAIIGNLDWTDAVQLTALVMSNQAMQQRLLAMLTTYVTKELQAEIRYED	−1.514	−0.949	−1.798	−1.4995	−1.811	down
